Assay results: patent publication US12048733B2, “Method of treatment” (THE BIONICS INSTITUTE OF AUSTRALIA, priority 2017, dated 2024)

What was measured:
[1] = Clearance of radiolabelled neurotrophin-3 by whole cochlear gamma counts; format: in vivo
Method: In vivo studies were carried out to determine the drug payload and clearance of neurotrophin delivered in a supraparticle implanted into the ear after 4 hr, 3 day and 7 days of implantation. The objective was to determine the amount of neurotrophin remaining in the cochlea over time.
1 SP containing radiolabelled neurotrophin-3 was implanted into each cochlea. Cochleae were harvested following 4 hrs (n=5), 3 d (n=7) or 7 d (n=4). Whole cochlear gamma counts were measured to determine the clearance of neurotrophin-3 over time. After 1 week of implantation each SP contained ˜2 ug of neurotrophin-3 (˜40%) of initial loaded amount.
Further experiments (n=2) were carried out to examine clearance of neurotrophin-3 following round window delivery. 3 days after implantation—whole cochlear measurements were again used to determine the clearance of neurotrophin-3 from the round window membrane.

[2] = BDNF perilymph concentration by ELISA after SP implantation; format: in vivo; settings: 2 electrosprayed SPs loaded with BDNF, n=2
Method: Next, 2 SPs produced by electrospraying were loaded with BDNF and placed inside the cochlea. Serial perilymph samples (1 ul samples) were obtained from the apex of the cochlea at three days and one week post implantation (sampling techniques described in Plontke et al. (2007) Laryngoscope. 117:1191-1198) and samples were analysed using an ELISA.

[3] = after 1 week of implantation, 1 SP intracochlear

Row | Molecule | neurotrophin-3 remaining ([1]; 3 days after implantation, round window delivery) [%] | neurotrophin-3 remaining ([1]; 3 days, intracochlear delivery) [%] | amount of neurotrophin-3 remaining per SP [1, 3] [µg] | neurotrophin-3 remaining (% of initial loaded amount) [1, 3] [%] | peak BDNF perilymph concentration inside the cochlea ([2]; after 3 days) [ng/mL] | peak BDNF perilymph concentration inside the cochlea ([2]; after 7 days) [ng/mL]
1 | neurotrophin-3 | 47.4 | 56 | ~2 | ~40 |  | 
2 | brain derived neurotrophic factor (protein, UniProt P23560 19-247, looked up, neurotrophin; BDNF Human Protein (Geneway)) Neurotrophic factor BDNF …: APMKEANIRGQGGLAYPGVRTHGTLESVNGPKAGSRGLTSLADTFEHVIEELLDEDQKVRPNEENNKDADLYTSRVMLSSQVPLEPPLLFLLEEYKNYLDAANMSMRVRRHSDPARRGELSVCDSISEWVTAADKKTAVDMSGGTVTVLEKVPVSKGQLKQYFYETKCNPMGYTKEGCRGIDKRHWNSQCRTTQSYVRALTMDSKKRIGWRFIRIDTSCVCTLTIKRGR |  |  |  |  | 1707 | 775
